# Reference: article PMC5349888, “Thyroid transcription factor FOXE1 interacts with ETS factor ELK1 to co-regulate TERT”
# T1: FOXE1-Flag (human, UniProt O00358 1-373)
# T1 sequence: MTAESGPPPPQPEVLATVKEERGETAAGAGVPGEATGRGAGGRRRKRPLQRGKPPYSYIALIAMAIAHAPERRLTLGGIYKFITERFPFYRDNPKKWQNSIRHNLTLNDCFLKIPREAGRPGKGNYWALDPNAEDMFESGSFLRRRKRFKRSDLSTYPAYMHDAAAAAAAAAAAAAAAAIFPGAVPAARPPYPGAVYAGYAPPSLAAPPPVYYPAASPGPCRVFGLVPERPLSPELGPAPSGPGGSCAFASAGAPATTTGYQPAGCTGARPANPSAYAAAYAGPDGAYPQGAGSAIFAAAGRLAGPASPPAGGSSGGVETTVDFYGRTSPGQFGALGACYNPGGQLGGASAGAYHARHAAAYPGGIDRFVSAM
# T2: ELK1-HA (human, UniProt P19419 1-428)
# T2 sequence: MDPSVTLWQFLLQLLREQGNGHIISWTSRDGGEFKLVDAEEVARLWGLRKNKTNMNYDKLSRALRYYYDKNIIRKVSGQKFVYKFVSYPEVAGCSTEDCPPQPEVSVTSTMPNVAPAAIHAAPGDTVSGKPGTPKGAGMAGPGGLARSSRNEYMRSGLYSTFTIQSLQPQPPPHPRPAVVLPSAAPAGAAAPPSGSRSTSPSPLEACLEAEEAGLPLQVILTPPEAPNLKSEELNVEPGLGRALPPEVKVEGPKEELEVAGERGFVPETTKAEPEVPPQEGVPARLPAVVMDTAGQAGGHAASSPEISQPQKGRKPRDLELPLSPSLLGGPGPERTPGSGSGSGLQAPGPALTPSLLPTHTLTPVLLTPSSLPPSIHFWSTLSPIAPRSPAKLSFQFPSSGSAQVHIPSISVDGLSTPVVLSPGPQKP
# T3: FOXE1-Flag;ELK1-HA (human;human, UniProt O00358;P19419 1-373;1-428, |)
# T3 sequence 1: T1 sequence
# T3 sequence 2: T2 sequence
# B1: TG promoter K region probe (dsDNA)
# DNA 1: GAGGGAGTTCCTGTGACTAGCAGAGAAAACAAAGTGAGCCAC
# DNA 2: GTGGCTCACTTTGTTTTCTCTGCTAGTCACAGGAACTCCCTC
# B2: TERT promoter probe (dsDNA)
# DNA 1: CCCCGCCCCGTCCCGACCCCTCCCGGGTCCCCGGCCCAGCCCCCTCCGGGCCCTCCCAGCCCCTCCCCTTCCTTTCCGCGGCCCC
# DNA 2: GGGGCCGCGGAAAGGAAGGGGAGGGGCTGGGAGGGCCCGGAGGGGGCTGGGCCGGGGACCCGGGAGGGGTCGGGACGGGGCGGGG
# Assays:
# [1] = biological target: T1, FOXE1-Flag; assay: EMSA; positive control; EMSA: 1 ug protein, 150 mM KCl, 50 ng/uL poly(dI-dC), 10% glycerol, 10 mM Tris pH 7.5, room temperature 30 min; 6% polyacrylamide gel; settings: protein: recombinant; tags: 3xFlag (p3XFlag-CMV-7.1); label: 5' biotin; blunt
# [2] = biological target: T2, ELK1-HA; assay: EMSA; ELK1 alone; EMSA: 1 ug protein, 150 mM KCl, 50 ng/uL poly(dI-dC), 10% glycerol, 10 mM Tris pH 7.5, room temperature 30 min; 6% polyacrylamide gel; settings: protein: recombinant; tags: HA (pCMV-HA-N); label: 5' biotin; blunt
# [3] = biological target: T3, FOXE1-Flag;ELK1-HA; assay: EMSA; FOXE1 shifts only with ELK1 present; EMSA: 1 ug protein, 150 mM KCl, 50 ng/uL poly(dI-dC), 10% glycerol, 10 mM Tris pH 7.5, room temperature 30 min; 6% polyacrylamide gel; settings: protein: recombinant;recombinant; tags: 3xFlag (p3XFlag-CMV-7.1);HA (pCMV-HA-N); copies: 1;1; label: 5' biotin; blunt
Binder,binding result [1],binding result [2],binding result [3]
B1,binds,,
B2,,binds,binds
